Reference: FireProtDB (doi:10.1093/protein/gzi051)

B1: Alpha-lactalbumin, P00711 (parent)
chain: MMSFVSLLLVGILFHATQAEQLTKCEVFRELKDLKGYGGVSLPEWVCTTFHTSGYDTQAIVQNNDSTEYGLFQINNKIWCKDDQNPHSSNICNISCDKFLDDDLTDDIMCVKKILDKVGINYWLAHKALCSEKLDQWLCEKL

Variants of: B1
Settings: Bos taurus, pH 7.7, Thermal, Fluorescence, HEPES-KOH 10 mM, structure 1HFZ, whole UniProt chain shown

Variant	Tm (CaCl2 1 mM) [°C]	change of melting temperature, mutant - wild type (higher = more stable) (CaCl2 1 mM) [°C]	Tm [°C]
MMSFVSLLLVGILFHATQAMQLTKCEVFRELKDLKGYGGVSLPEWVCTTFHTSGYDTQAIVQNNDSTEYGLFQINNKIWCKDDQNPHSSNICNISCDKFLDDDLTDDIMCVKKILDKVGINYWLAHKALCSEKLDQWLCEKL [E20M]	69.8	10	36.8
MMSFVSLLLVGILFHATQAEQLTKCQVFRELKDLKGYGGVSLPEWVCTTFHTSGYDTQAIVQNNDSTEYGLFQINNKIWCKDDQNPHSSNICNISCDKFLDDDLTDDIMCVKKILDKVGINYWLAHKALCSEKLDQWLCEKL [E26Q]	67.7	7.9	27
MMSFVSLLLVGILFHATQAEQLTKCEVFRELKDLKGYGGVSLPAWVCTTFHTSGYDTQAIVQNNDSTEYGLFQINNKIWCKDDQNPHSSNICNISCDKFLDDDLTDDIMCVKKILDKVGINYWLAHKALCSEKLDQWLCEKL [E44A]	60.9	1.1	19.5
MMSFVSLLLVGILFHATQAEQLTKCEVFRELKDLKGYGGVSLPEWVCTTFHTSGYNTQAIVQNNDSTEYGLFQINNKIWCKDDQNPHSSNICNISCDKFLDDDLTDDIMCVKKILDKVGINYWLAHKALCSEKLDQWLCEKL [D56N]	74.2	14.4	31.7
MMSFVSLLLVGILFHATQAQQLTKCEVFRELKDLKGYGGVSLPEWVCTTFHTSGYDTQAIVQNNDSTEYGLFQINNKIWCKDDQNPHSSNICNISCDKFLDDDLTDDIMCVKKILDKVGINYWLAHKALCSEKLDQWLCEKL [E20Q]			23.5
MMSFVSLLLVGILFHATQAEQLTKCEVFRLLKDLKGYGGVSLPEWVCTTFHTSGYDTQAIVQNNDSTEYGLFQINNKIWCKDDQNPHSSNICNISCDKFLDDDLTDDIMCVKKILDKVGINYWLAHKALCSEKLDQWLCEKL [E30L]			27.5
